In the supplement of paper PMC9170038:

Tested on: MS2 coat protein
Assay: apparent KD of MS2 coat protein; designed switch direction (-1 OFF switch, 1 ON switch): 1; higher = weaker reporter binding
Procedure, shortened: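 Three titration conditions were used: no input, 200 uM small-molecule ligand, and an oligonucleotide input. In each, SNAP-549-labelled MS2 coat protein was raised from 0.7 or 1.5 nM, doubling, to 3 µM over designed RNA switches transcribed on Illumina chips by stalled E. coli RNA polymerase. Curve fits of normalised cluster fluorescence gave values whose per-design median over clusters is the apparent KD.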

[1] = input ligand: microRNA oligo, concentration not stated
[2] = Eterna round: R95, input ligand: FMN 200 uM
[3] = Eterna round: R95, input ligand: microRNA oligo, concentration not stated
[4] = Eterna round: R95, input ligand: none

Sequence	apparent KD of MS2 coat protein (input ligand: FMN 200 uM) [nM]	apparent KD of MS2 coat protein [1] [nM]	apparent KD of MS2 coat protein (input ligand: none) [nM]	apparent KD of MS2 coat protein [2] [nM]	apparent KD of MS2 coat protein [3] [nM]	apparent KD of MS2 coat protein [4] [nM]
GCCGCGUUUCGCGCCUACAUGAGGAUCACCCAUGUUUGUAGGCAGGAUAUCGUUUGCUUUGCGGGCGAGAAGGGCUGUUGUGGC [salish99_SSNG3_R04_017] (Eterna round: R96, puzzle: Same State NG 3)	35	28.9	38.8	–	–	–
UUUUUGAUCCGAGGAUAUCCUUUUUUCUUACAUGAGGAUCACCCAUGUAAAGGGAUUGAGUUGUAGGAGAAGGCGGUUUUUGUU [JR_SSNG2_Sub059] (Eterna round: R96, puzzle: Same State NG 2)	19.8	28.3	35	–	–	–
UCUUGGUUUUUGCUCGUUUUUUGUGUUGAACAUGAGGAUCACCCAUGUAUUGUACGGUCCAGUUUGGUGGUAGUCCG [JMF 71] (puzzle: Sensor for hsa-mir-208a)	–	–	–	32.9	24.4	38
AUAAGUUUGAUGCUCGUCUCUCCGUACAGACAUGAGGAUCACCCAUGUAGUCAGGAAGUAGCCUGGCCAGUAUGGCC [Berave] (puzzle: Sensor for hsa-mir-208a)	–	–	–	27.5	16.6	31.1
GUGGUCAGACAUGAGGAUCACCCAUGUGGAAUAAAUAAGGGAUAGGAUAUGGAAUAUAGGAUAUACCAGAAGGGUUGGUUGGUG (Eterna round: R96, puzzle: Same State NG 3)	107	87.6	95.1	–	–	–
AAAUAGCAUGGAAACAUGCUAAAAACUGUACAUGAGGAUCACCCAUGUCAUGUGUAGGCUUUUUGUUCGUCUUAUAA [Effort 12] (Eterna round: R96, puzzle: Sensor for hsa-mir-208a)	25.5	12.3	27.8	–	–	–
GGUAUCGACGCAGGAUAUGCUAUCCUUUGGGUAGCAGAAGGGUGAACAUGAGGAUCACCCAUGUGGGUGCCAGGGCGUGAGCCC [JL SSNG1 1.82] (Eterna round: R96, puzzle: Same State NG 1)	694	18.2	86.8	–	–	–
CGGGUACAUGAGGAUCACCCAUGUUGGAGUAAUGCAGGAUAUGUGAGACGAGAUGAUAAAACAGAAGGGCAAGGAG [JR_SS!_Sub010] (puzzle: Same State 1)	–	–	–	50.2	70.5	123
GGACGUCAAUCUCCUAAUUAAACAUGAGGAUCACCCAUGUCACAGGAUAUGAGUCCGAUUAGGACUCAGAAGGGUGAGACGUCC [Fiskers NG3ss - 49] (Eterna round: R96, puzzle: Same State NG 3)	22.1	17.2	25.8	–	–	–
UCUUGGUUUUUGCUCGUUUUUUGUGUUGAACAUGAGGAUCACCCAUGUAUUGUACAAUCCAGUUUAAUAAUGGUCCG [JMF 49] (puzzle: Sensor for hsa-mir-208a)	–	–	–	105	87.3	130
GCCCAGAGUAUAUGGGUACAAGCUUUUUGACAUGAGGAUCACCCAUGUACUCGUCUUAUGUGCAGUCCGUAGACUGC [JL-shm-2.19 Brourd mod] (puzzle: Sensor for hsa-mir-208a)	–	–	–	18.2	27.3	17.4
GCAGGACGGUAAAACAUCUCACAUGAGGAUCACCCAUGUUGUGAGGAUAUGGAUCCUAAUUGGAUCCAGAAGGCACGGUCCUGC [Fiskers NG3ss - 30] (Eterna round: R96, puzzle: Same State NG 3)	24.9	17.7	27.8	–	–	–
UCUUGGUUUUUGCUCGUUUUUUGUGUUGAACAUGAGGAUCACCCAUGUAUUGUACGGUCCGAUUUAAUGAUGGUCCA [JMF 39] (puzzle: Sensor for hsa-mir-208a)	–	–	–	32.4	19.7	34.1
